Measured values from article PMC8444619.
Values belong to the substance of their own block, whether it stands above or below them.

Assays:
Test in all cases: cross-linking
[1] = biological target: HA-tagged GST V125-TAG (azF) (E. coli) (UniProt P0A9D2)
[2] = biological target: NS4B^HA (HA-tagged HCV NS4B, wild type, in NS3-5B-4B^HA) (hepatitis C virus)
[3] = biological target: NS4B^HA A180-TAG (azF) (hepatitis C virus)
[4] = biological target: NS4B^HA I96-TAG (azF) (hepatitis C virus)
[5] = biological target: NS4B^HA K162-TAG (azF) (hepatitis C virus)
[6] = biological target: NS4B^HA M80-TAG (azF) (hepatitis C virus)
[7] = biological target: NS5A^HA I15-TAG (azF) F36A/I37A/S38A/R112A/E148A (hepatitis C virus)
[8] = biological target: NS5A^HA W84-TAG (azF) (hepatitis C virus)
[9] = biological target: NS5A^HA W84-TAG (azF) D18A (hepatitis C virus)

stoichiometry N [1]: 2
Substance: HA-tagged GST V125-TAG (azF) (from UniProt P0A9D2 1-201) (enzyme)

Substance: NS4B^HA (HA-tagged HCV NS4B, wild type, in NS3-5B-4B^HA) (natural protein)
stoichiometry N [2]: 2

Substance: NS4B^HA A180-TAG (azF) (natural protein)
stoichiometry N [3]: 2

Substance: NS4B^HA I96-TAG (azF) (natural protein)
stoichiometry N [4]: 2

Substance: NS4B^HA K162-TAG (azF) (natural protein)
stoichiometry N [5]: 2

Substance: NS4B^HA M80-TAG (azF) (natural protein)
stoichiometry N [6]: 2

Substance: NS5A^HA I15-TAG (azF) F36A/I37A/S38A/R112A/E148A (natural protein)
percent of the control level (% of the control level) [7]: 55

Substance: NS5A^HA W84-TAG (azF) (natural protein)
stoichiometry N [8]: 2

Substance: NS5A^HA W84-TAG (azF) D18A (natural protein)
percent of the control level (% of the control level) [9]: 66
